One block for each binder: values may come before it.
Experiments:
[1] = molecular target: T1, Y. lipolytica F1Fo-ATP synthase subunit α (Yarrowia lipolytica, UniProt Q6C326 25-536); assay: cryo-EM structure; single-particle cryo-EM of the purified dimer 2YLF1Fo; C2 symmetry imposed; 7.8 Å overall, 6.9 Å for F1 and 6.2 Å for the Fo dimer after masking; fitted with the YLF1c10 X-ray structure and homology models of the peripheral stalk; details: both partners purified
T1 construct: subunit α of the mitochondrial F1Fo-ATP synthase, Yarrowia lipolytica; three copies in each F1 head, in the states αE, αTP and αDP; also called αE; αTP; source: endogenous, purified from Y. lipolytica mitochondria as part of 2YLF1Fo, 1YLF1Fo and the YLF1c10 subcomplex
T1 sequence (Q6C326 25-536): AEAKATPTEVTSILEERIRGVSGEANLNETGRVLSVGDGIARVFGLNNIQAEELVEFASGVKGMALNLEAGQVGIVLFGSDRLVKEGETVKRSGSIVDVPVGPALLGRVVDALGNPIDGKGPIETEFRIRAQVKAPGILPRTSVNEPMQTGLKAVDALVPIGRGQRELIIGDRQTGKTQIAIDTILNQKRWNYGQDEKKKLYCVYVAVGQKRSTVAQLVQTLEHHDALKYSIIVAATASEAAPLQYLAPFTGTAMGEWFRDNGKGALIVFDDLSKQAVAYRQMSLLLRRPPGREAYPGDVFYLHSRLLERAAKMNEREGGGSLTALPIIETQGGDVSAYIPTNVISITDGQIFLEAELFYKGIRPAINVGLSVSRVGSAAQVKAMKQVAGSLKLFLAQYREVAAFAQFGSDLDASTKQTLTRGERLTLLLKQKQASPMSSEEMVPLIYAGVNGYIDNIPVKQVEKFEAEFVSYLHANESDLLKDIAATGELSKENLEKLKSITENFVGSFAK

[2] = molecular target: T2, e/g heterodimer of the Y. lipolytica F1Fo-ATP synthase (subunits e and g) (Yarrowia lipolytica, UniProt B5FVG3 1-90; B5FVB8 1-138); assay: as above; details: both partners purified
T2 construct: subunit e of the mitochondrial F1Fo-ATP synthase, Yarrowia lipolytica; predicted N-terminal trans-membrane helix with a GxxxG motif and a hydrophilic C terminus; subunit g of the mitochondrial F1Fo-ATP synthase, Yarrowia lipolytica; N-terminal matrix domain and predicted C-terminal trans-membrane helix with a GxxxG motif; the two subunits are not resolved from each other in the 6.2 Å map; also …
T2 sequence (looked up) 1: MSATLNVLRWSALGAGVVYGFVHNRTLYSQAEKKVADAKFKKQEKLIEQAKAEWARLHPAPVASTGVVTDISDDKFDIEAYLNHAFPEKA
T2 sequence (looked up) 2: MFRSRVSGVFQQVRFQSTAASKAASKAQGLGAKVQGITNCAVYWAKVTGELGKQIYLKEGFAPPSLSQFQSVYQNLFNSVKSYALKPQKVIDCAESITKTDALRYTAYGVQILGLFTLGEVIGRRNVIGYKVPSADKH

[3] = molecular target: T1, Y. lipolytica F1Fo-ATP synthase subunit …; assay: crystal structure; YLF1c10 subcomplex crystallised from the 1YLF1Fo complex without added nucleotides or inhibitors; 3.5 Å; molecular replacement with a model based on S. cerevisiae F1c10; details: both partners purified
[4] = molecular target: the molecule itself; assay: as above
[5] = molecular target: T3, Y. lipolytica F1Fo-ATP synthase subunit a (Yarrowia lipolytica, UniProt Q36258 7-255); assay: cryo-EM structure; single-particle cryo-EM of the purified dimer 2YLF1Fo; C2 symmetry imposed; 7.8 Å overall, 6.9 Å for F1 and 6.2 Å for the Fo dimer after masking; fitted with the YLF1c10 X-ray structure and homology models of the peripheral stalk; details: both partners purified
T3 construct: subunit a of the mitochondrial F1Fo-ATP synthase, Yarrowia lipolytica; mitochondrially encoded; helices aH1 to aH6; source: endogenous, purified from Y. lipolytica mitochondria as part of 2YLF1Fo
T3 sequence (looked up): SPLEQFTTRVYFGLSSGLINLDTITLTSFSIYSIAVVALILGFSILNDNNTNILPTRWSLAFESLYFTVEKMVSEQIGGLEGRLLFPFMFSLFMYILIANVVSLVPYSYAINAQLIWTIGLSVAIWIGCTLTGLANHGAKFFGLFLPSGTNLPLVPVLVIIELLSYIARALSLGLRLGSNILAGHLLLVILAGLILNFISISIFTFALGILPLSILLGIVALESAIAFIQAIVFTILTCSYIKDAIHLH

[6] = molecular target: the molecule itself; assay: as above

B1: Y. lipolytica F1Fo-ATP synthase subunit b (natural protein, Yarrowia lipolytica, UniProt Q6C105 15-217, looked up)
chain: SNQVDPKVKATSILDSIPGNNVLSKTGVLATGVLGSIYAISNELYIVNDESIVLGVFAAFVVVVAKLGGPGYTSWADGYIENMRNILNTTRDKHTDAVKERIGDVSKLKDVVKTTQDLFAVSKDTVKLEAEVFETKQQVVLAAEAKSVLDSWVRYENSVRQREQKLLTETVISKIEKDLKDPKFQQKILQQSVEDIEKLFAKA
notes: subunit b of the mitochondrial F1Fo-ATP synthase, Yarrowia lipolytica; two trans-membrane helices at its N terminus; also called peripheral stalk subunit b; source: endogenous, purified from Y. lipolytica mitochondria as part of 2YLF1Fo
- binding result [1]: binds
- binding result [2]: binds

B2: Y. lipolytica F1Fo-ATP synthase subunit γ (natural protein, Yarrowia lipolytica, UniProt Q6C338 22-293, looked up)
chain: ATLREIEMRLKSIKNIEKITNTMKIVASTKLGKAQRAMATSKVYNEASEKVFENSETAVPENIEKRLWVVVSSDKGLCGSIHSQLARTVRRKLLDFESGEKLIDIVAVGEKIKAQLGRSNPEQMRLSFGGTGKEAPTFEEAAHIADEILALDTQYDDIEIVYNKVLSGISFEPIMKESYSAKAIEDAPKFGQYELEDDVVKNLADFSLANTIYAAMAEGHAAEISARRNAMDNASKNASDMINKYSILYNRTRQAVITNELVDIITGASSLE
notes: subunit γ of the mitochondrial F1Fo-ATP synthase, Yarrowia lipolytica; also called central γ subunit; source: endogenous, purified from Y. lipolytica mitochondria as part of the YLF1c10 subcomplex (from 1YLF1Fo)
- binding result [3]: binds

B5: Y. lipolytica F1Fo-ATP synthase subunit f (natural protein, Yarrowia lipolytica, UniProt Q6C9E6 7-103, looked up)
chain: LSTLIPPKVASPATLHGAPNAKRMADVVSFYKALPQGAAPALPKTANPFKLYYRKYFHPKSGKASGAPLLHLILGIFLFGYISDYQFHLKHHKNGAH
notes: subunit f of the mitochondrial F1Fo-ATP synthase, Yarrowia lipolytica; nuclear-encoded; in yeast a 100-residue subunit with a hydrophilic N-terminal domain and a predicted C-terminal trans-membrane helix; source: endogenous, purified from Y. lipolytica mitochondria as part of 2YLF1Fo
- binding result [6]: binds

B7: Y. lipolytica F1Fo-ATP synthase subunit h (natural protein, Yarrowia lipolytica, UniProt Q6C2V6 20-108, looked up)
chain: NLISEAYTREVRAFKAPKLSAKDAEGQVKPWSAPSAPKPPVVEGADAAELQAYAEAPVDVEGQTNSKSASPQANDEDWLAFEEEEGVAV
notes: peripheral stalk subunit h of the mitochondrial F1Fo-ATP synthase, Yarrowia lipolytica; also called equivalent of bovine F6; source: endogenous, purified from Y. lipolytica mitochondria as part of 2YLF1Fo
- binding result [1]: binds

More lines, main results first:

- binding result [1]: binds
B3: Y. lipolytica F1Fo-ATP synthase subunit OSCP (natural protein, Yarrowia lipolytica, UniProt Q6C9B1 25-214, looked up)
chain: APVKVPVQLFGLDGTYATALYTAAAKESDLSKTEGSLAKLRDVFAQQPEVAQIVSNPTLSHEDKQTVVNVLSQAVGGDKTLTNFLTVISDNNRLALIPGIIEKFETLVNASKGLVEATVTSASELDKKTVNRIQAAIAGSSFVGEGELKLNLKVNPDILGGLIVEVAERTVDVSVASKIARLNHVLSEPI
notes: peripheral stalk subunit OSCP of the mitochondrial F1Fo-ATP synthase, Yarrowia lipolytica; source: endogenous, purified from Y. lipolytica mitochondria as part of 2YLF1Fo

- binding result [5]: binds
B4: Y. lipolytica F1Fo-ATP synthase subunit c (natural protein, Yarrowia lipolytica, UniProt Q37695 1-76, looked up)
chain: MQLVLAGKYIGAGLASIGLVGAGIGIAIVFAALINGVSRNPALKGQLFTYSILGFALSEATGLFALMIAFLLLYAV
notes: subunit c (subunit 9) of the mitochondrial F1Fo-ATP synthase, Yarrowia lipolytica; mitochondrially encoded; ten copies form the rotor ring; also called c subunit; c-ring; source: endogenous, purified from Y. lipolytica mitochondria as part of 2YLF1Fo and the YLF1c10 subcomplex
- stoichiometry N [4]: 10

- binding result [1]: binds
B6: Y. lipolytica F1Fo-ATP synthase subunit d (natural protein, Yarrowia lipolytica, UniProt Q6CFH9 1-176, looked up)
chain: MSVAAARSSAVKVDWGKIVSSLGLTGATVSSLQAFRKRHEEAKKNAYELQNQPTTVDFAHYRKVLKNQKVVDEIEQHFKSFKPVTYDVSKQLKTIDAFEAKAIEDAKATEGKVNQEIGDLQKTLENIESARPFDQLSVDDVFKARPDLEKKIEEMVKKGRWSVPGYNEKFGSVVLM
notes: peripheral stalk subunit d of the mitochondrial F1Fo-ATP synthase, Yarrowia lipolytica; also called d subunit; source: endogenous, purified from Y. lipolytica mitochondria as part of 2YLF1Fo

- binding result [5]: binds
B8: Y. lipolytica F1Fo-ATP synthase subunit 8 (natural protein, Yarrowia lipolytica, UniProt Q36257 1-48, looked up)
chain: MPQLVPFYFTNQIFYGFASLSVIVYLFSIYILPHYLEIYVTRIFITKT
notes: subunit 8 of the mitochondrial F1Fo-ATP synthase, Yarrowia lipolytica; 48 residues; N-terminal MPQL motif, trans-membrane helix ended by Pro33; mitochondrially encoded; also called A6L in human; source: endogenous, purified from Y. lipolytica mitochondria as part of 2YLF1Fo
